Experimental data as given in patent publication US20230203185A1 (ECO ANIMAL HEALTH, published 2023).
Changes are numbered by the printed parent chain.

B1: VHH 023 (4E10) (VHH)
VHH: QVQLVESGGGLVQAGGSLRLSCVASSRTSSTYAMGWFRQGPGKERDFVAIISFGGTFYADSVKGRFTISRDNAKNTVYLQMNSLKPEDTAVYYCAAGRTLSKRADSYASWGQGTQVTVSS
notes: Llama single domain antibody; also called 70(#23); VHCDR3 70(#23); not shown: tags: c-myc tag in periplasmic extract (ELISA, FACS); FLAG and His tags in purified VHH (SPR, infection assays)
B2: VHH 011 (2B06) (VHH)
VHH: EVQLVESGGGLVQAGGSLRLSCAASGRTLSVYGTGWFRQAPGKEREFVAGISGTTGSTLYADSVKGRFTISRDNAKNTVYLQMNSLKSEDTALYYCAAGGRVYITTSSWAYWGQGTQVTVSS
notes: Llama single domain antibody; also called 57(#11); VHCDR3 57(#11); not shown: tags: c-myc tag in periplasmic extract (ELISA, FACS); FLAG and His tags in purified VHH (SPR, infection assays)
B3: VHH 001 (1B02) (VHH)
VHH: EVQLVESGGGLVQAGGSLSLSCAASGGTLAMYAMSWFRQAPGKDRKFVAAINTSGRYSRYADSVKGRFTISRDNAKNTATLQMNSLEPEDTAVYYCAATDKGNWALAMSYDYWGQGTQVTVSS
notes: Llama single domain antibody; also called 144(#1); VHCDR3 144(#1); not shown: tags: c-myc tag in periplasmic extract (ELISA, FACS); FLAG and His tags in purified VHH (SPR, infection assays)
B4: VHH 002 (1B04) (VHH)
VHH: QVQLVESGGGLVQAGGSLRLSCAASGLTFVTYSMGWFRQAPGKEREFVAAHRWSGSAYYAEHADSVEGRFTISRDYAKNMLYLQMNSLKHEDTAVYYCAAGVGSAAQYRYWGRGTQVTVSS
notes: Llama single domain antibody; also called 76(#2); VHCDR3 76(#2); not shown: tags: c-myc tag in periplasmic extract (ELISA, FACS); FLAG and His tags in purified VHH (SPR, infection assays)
B5: VHH 008 (1H01) (VHH)
VHH: B4 VHH with L27R, V30G, A105E
notes: Llama single domain antibody; also called 78(#8); VHCDR3 78(#8); not shown: tags: c-myc tag in periplasmic extract (ELISA, FACS); FLAG and His tags in purified VHH (SPR, infection assays)
B6: VHH 016 (2H11) (VHH)
VHH: EVQLVESGGGLVQAGGSLRLSCAASGRTFAPGSMGWFRQAPGKEREFVAAHRWSGSAYYADYADSVEGRFTISRDYAKNMVYLQMNSLKPGDTAVYYCAAGVGSAAQYTYWGRGTQVTVSS
notes: Llama single domain antibody; also called 77(#16); VHCDR3 77(#16); not shown: tags: c-myc tag in periplasmic extract (ELISA, FACS); FLAG and His tags in purified VHH (SPR, infection assays)
B7: VHH 018 (3E01) (VHH)
VHH: QVQLQESGGGLVQVGGSLRLSCVASGRAPSRYVMGWFRQAPGQEREFVAGIAWSGRAPYADSVKGRSTISRDNAKNTVYLQMNSLKPEDTGVYYCAGGEGAIRWTTLDAYDYWGQGTQVTVSS
notes: Llama single domain antibody; also called 49(#18); VHCDR3 49(#18); not shown: tags: c-myc tag in periplasmic extract (ELISA, FACS); FLAG and His tags in purified VHH (SPR, infection assays)
B8: VHH 020 (3H11) (VHH)
VHH: B7 VHH with A28T, S67F, T68V, N73S, P87S, R103L, L107P, D108G, D111N
notes: Llama single domain antibody; also called 48(#20); VHCDR3 48(#20); not shown: tags: c-myc tag in periplasmic extract (ELISA, FACS); FLAG and His tags in purified VHH (SPR, infection assays)
B9: VHH 019 (3E11) (VHH)
VHH: B7 VHH with G16S, A24T, A28T, G50A, A52S, S67F, R103K
notes: Llama single domain antibody; also called 47(#19); VHCDR3 47(#19); not shown: tags: c-myc tag in periplasmic extract (ELISA, FACS); FLAG and His tags in purified VHH (SPR, infection assays)
B10: VHH 012 (2C07) (VHH)
VHH: QLQLVESGGGLVQAGGSLRLSCVASGRTFSRYAMGWFRQAPGKEREFVAAIAWSTGSTYYANSVKGRFAISGDNAKNTVYLQMNSLKPEDTAVYYCAAETRYCSGFGCLDPRTYGSWGQGTQVTVSS
notes: Llama single domain antibody; also called 41(#12); VHCDR3 41(#12); not shown: tags: c-myc tag in periplasmic extract (ELISA, FACS); FLAG and His tags in purified VHH (SPR, infection assays)
B11: VHH 015 (2G01) (VHH)
VHH: QVQLVESGGGLVQAGDTLRLSCTASGRTFSSYSMGWFRQAPGKEREFVAAITWNGYITNYADSVKGRFTISRDNTKNTVFLQMNSLKPEETAVYYCAATTFSTTSPISRTYNYWGPGTQVTVSS
notes: Llama single domain antibody; also called 150(#15); VHCDR3 150(#15); not shown: tags: c-myc tag in periplasmic extract (ELISA, FACS); FLAG and His tags in purified VHH (SPR, infection assays)
B12: VHH 017 (3D03) (VHH)
VHH: QLQLVESGGGLVQPGGSLRLSCAASGFTLDDYTIGWFRQAPGKEREGVSCINSITSNTYYADSVKGRFTISRDNAKNTVYLQMNSLTAEDTAIYYCAADSGLFSGSSCLKYRAMRFGSWGQGTQVTVSS
notes: Llama single domain antibody; also called 29(#17); VHCDR3 29(#17); not shown: tags: c-myc tag in periplasmic extract (ELISA, FACS); FLAG and His tags in purified VHH (SPR, infection assays)

How the values were obtained:
[1] = target: T1, native membrane bound porcine CD163 on primary porcine alveolar macrophages (porcine, UniProt Q2VL90 47-1115); test: flow cytometry, PAM CD163-WT, RT
T1 construct: also called PAM CD163-WT; pPAM
T1 sequence: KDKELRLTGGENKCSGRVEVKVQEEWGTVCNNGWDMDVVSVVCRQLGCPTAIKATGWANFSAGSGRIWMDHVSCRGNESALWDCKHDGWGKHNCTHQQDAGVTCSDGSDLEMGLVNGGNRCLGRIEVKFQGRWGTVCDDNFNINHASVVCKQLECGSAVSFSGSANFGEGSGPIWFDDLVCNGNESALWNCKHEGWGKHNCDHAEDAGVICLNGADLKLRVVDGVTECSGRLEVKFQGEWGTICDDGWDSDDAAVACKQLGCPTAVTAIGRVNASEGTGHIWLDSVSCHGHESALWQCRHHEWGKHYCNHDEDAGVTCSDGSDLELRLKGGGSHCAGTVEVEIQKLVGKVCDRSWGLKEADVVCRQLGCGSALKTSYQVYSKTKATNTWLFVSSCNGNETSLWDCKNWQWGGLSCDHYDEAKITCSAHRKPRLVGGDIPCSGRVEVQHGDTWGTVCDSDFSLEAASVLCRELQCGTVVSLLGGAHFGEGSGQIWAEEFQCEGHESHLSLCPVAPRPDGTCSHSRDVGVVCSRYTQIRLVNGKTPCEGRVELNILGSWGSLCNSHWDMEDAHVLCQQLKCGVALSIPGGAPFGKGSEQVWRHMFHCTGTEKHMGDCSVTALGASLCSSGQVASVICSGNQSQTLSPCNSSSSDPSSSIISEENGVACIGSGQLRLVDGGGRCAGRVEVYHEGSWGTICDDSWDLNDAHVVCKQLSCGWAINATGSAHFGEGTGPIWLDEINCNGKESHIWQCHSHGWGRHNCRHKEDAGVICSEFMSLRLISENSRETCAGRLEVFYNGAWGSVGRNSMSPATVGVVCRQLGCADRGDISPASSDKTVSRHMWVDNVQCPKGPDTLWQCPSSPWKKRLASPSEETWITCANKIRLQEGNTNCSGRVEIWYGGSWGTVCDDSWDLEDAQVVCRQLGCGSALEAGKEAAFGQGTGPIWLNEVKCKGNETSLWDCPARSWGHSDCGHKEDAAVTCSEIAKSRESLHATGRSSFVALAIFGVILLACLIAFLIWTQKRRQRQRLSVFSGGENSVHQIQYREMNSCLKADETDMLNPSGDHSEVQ

[2] = target: control human IgG (human); test: ELISA, periplasmic extract on control IgG
[3] = target: T2, porcine CD163 with deletion of SRCR domain 5 on porcine alveolar macrophages (porcine, UniProt Q2VL90 47-1115); test: flow cytometry on PAM with deletion of SRCR5
T2 construct: also called PAM CD163-d5; pPAMΔ5 domain
T2 sequence: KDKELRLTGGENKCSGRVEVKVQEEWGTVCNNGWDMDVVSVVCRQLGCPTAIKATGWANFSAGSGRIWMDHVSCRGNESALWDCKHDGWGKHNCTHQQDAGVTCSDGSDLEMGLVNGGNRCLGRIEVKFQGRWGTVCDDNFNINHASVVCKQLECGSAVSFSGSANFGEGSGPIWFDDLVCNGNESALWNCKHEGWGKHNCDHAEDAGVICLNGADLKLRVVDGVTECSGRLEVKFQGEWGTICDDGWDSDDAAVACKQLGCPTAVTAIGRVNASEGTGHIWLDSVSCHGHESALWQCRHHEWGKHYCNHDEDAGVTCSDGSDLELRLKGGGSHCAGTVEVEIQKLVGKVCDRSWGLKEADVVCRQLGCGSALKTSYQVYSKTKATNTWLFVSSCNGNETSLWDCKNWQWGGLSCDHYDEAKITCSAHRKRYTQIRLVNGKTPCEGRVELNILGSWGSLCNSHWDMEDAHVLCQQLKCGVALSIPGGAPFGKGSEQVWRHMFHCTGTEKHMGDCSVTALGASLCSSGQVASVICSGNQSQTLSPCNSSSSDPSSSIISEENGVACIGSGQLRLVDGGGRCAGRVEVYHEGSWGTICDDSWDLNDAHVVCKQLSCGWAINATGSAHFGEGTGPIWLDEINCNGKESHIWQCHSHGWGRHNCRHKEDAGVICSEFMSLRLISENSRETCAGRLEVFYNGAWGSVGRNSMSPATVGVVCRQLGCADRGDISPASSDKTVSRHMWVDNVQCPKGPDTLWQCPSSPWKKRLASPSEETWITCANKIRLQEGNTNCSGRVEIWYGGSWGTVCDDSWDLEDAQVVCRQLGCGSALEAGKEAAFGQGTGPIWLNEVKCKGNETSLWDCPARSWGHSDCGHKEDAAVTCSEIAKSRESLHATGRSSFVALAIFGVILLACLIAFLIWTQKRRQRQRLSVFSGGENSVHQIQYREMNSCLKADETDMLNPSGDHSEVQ
Method: (§1) Periplasmic Extract (P.E) from the selected clones were incubated with anti-c-myc antibody (Roche; Cat. nr. 11667203001), specific to the c-myc tag present in the soluble VHH, for 30 minutes with agitation at room temperature (RT). The mix (P.E + anti-c-myc antibody) was added to the pPAM or pPAMΔ5 domain (cells with deletion of SRCR domain 5) and incubated for 60 min at 4° C. with gentle shaking.
(§2) Cells were washed 3x with 150 µl/well of FACS Buffer and incubated with 50 µl/well of the secondary antibody GAM-APC for 30 min at 4° C. and protected from the light, with shaking.

[4] = target: T1, native membrane bound porcine CD163 on …; test: flow cytometry, PAM CD163-WT, 4C
Method: as §1, §2

[5] = target: T2, porcine CD163 with deletion of SRCR …; test: flow cytometry, PAM CD163-d5
Method: as §1, §2

Binder | % Binding [1] [%] | MFI [1] [MFI] | O.D. 450 [2] [O.D. 450] | binding result [3] | % Binding [4] [%] | MFI [4] [MFI] | % Binding [5] [%] | MFI [5] [MFI]
B1 | 0.56 | 843 | 0.054 | no binding | 8.75 | 1390 | 1.53 | 1260
B2 | 3.32 | 983 | 0.059 | no binding | 74.1 | 4270 | 1.91 | 1610
B3 | 0.69 | 722 | 0.059 | no binding | 0.97 | 742 | 2.15 | 1430
B4 | 1.02 | 900 | 0.057 | no binding | 31.8 | 1980 | 1.74 | 1260
B5 | 0.87 | 963 | 0.06 | no binding | 38.8 | 2370 | 2.7 | 1460
B6 | 1.59 | 927 | 0.06 | no binding | 61 | 3210 | 1.66 | 1360
B7 | 1.74 | 903 | 0.057 | no binding | 80.1 | 5210 | 1.96 | 1400
B8 | 81.5 | 9120 | 0.056 | no binding | 95.5 | 14000 | 1.98 | 1330
B9 | 59.5 | 3940 | 0.054 | no binding | 93.8 | 12500 | 1.83 | 1530
B10 | 91.5 | 17700 | 0.057 | no binding | 97.9 | 26500 | 2.13 | 1580
B11 | 20.4 | 1660 | 0.058 | no binding | 81.5 | 6220 | 1.6 | 1130
B12 | 37.2 | 2290 | 0.053 | no binding | 95.3 | 13500 | 2.14 | 1450
